From patent publication US20230235058A1 (OXFORD UNIVERSITY INNOVATION, published 2023)

T1: full length cynomolgus BTLA expressed on Jurkat cells (cynomolgus monkey, UniProt Q7Z6A9 31-289 (human entry))
T1 construct: also called cynomolgus BTLA expressing cells
T1 chain: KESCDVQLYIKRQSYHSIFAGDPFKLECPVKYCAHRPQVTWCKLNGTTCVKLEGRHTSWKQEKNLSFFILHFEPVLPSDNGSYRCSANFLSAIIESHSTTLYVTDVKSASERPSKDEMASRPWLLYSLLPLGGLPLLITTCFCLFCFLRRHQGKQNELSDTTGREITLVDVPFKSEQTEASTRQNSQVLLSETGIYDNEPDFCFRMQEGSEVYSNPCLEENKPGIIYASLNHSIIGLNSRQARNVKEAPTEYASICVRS


Assays:
[1] = molecular target: T1, full length cynomolgus BTLA expressed …; assay: flow cytometry, BTLA Jurkat cells
Protocol: A lentiviral transfection system was used to express full length human or cynomolgus BTLA in a Jurkat T cell line. 1×10⁵ cells per well were plated in 96 well U-bottom plates. […] Secondary antibody was incubated for 30 minutes on ice, then cells were washed and resuspended in FACS buffer for analysis on a flow cytometer. The geometric mean fluorescent intensity of secondary antibody was plotted for each concentration and the EC50 for receptor binding calculated by non-linear curve fitting using GraphPad Prism software.
The ability of the BTLA agonist antibodies of the present invention to bind to human or cynomolgus BTLA expressed on the cell surface was assessed by flow cytometry. A lentiviral transfection system was used to express full length human or cynomolgus BTLA in a Jurkat T cell line. 1×10⁵ cells per well were plated in 96 well U-bottom plates.

[2] = molecular target: T2, chimeric BTLA of humanised-BTLA mice (human extracellular region, murine transmembrane and signaling … (human; mouse, UniProt Q7TSA3 184-306, limits assumed); assay: cell-based or functional assay
T2 sequence (Q7TSA3 other isoform, or with tags, fused parts or gaps mutant limits assumed): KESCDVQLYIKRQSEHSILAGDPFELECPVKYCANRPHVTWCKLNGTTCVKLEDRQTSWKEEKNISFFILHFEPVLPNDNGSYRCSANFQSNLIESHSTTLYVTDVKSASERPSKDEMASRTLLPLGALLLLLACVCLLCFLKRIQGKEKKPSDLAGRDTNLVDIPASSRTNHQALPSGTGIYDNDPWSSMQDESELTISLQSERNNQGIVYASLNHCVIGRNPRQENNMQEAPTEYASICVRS

K81L = molecular target: T3, K81L (Mus musculus); assay: flow cytometry, GFP-positive transfected HEK-293T cells, fluorochrome-conjugated antibody at 10 ug/ml, Geo-mean relative to wild type;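 note: cells express mutant human BTLA ectodomain fused to murine CD28 transmembrane and cytoplasmic parts, stained 48 h after transfection for 1 h at 4 °C alongside a Live/Dead dye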
T3 construct: transmembrane and intracellular regions; also called BTLA K81L construct
Protocol: (§1) Constructs encoding the human extracellular region of BTLA with the transmembrane and intracellular regions of murine CD28 were cloned into the bi-cistronic mammalian expression vector pGFP2-n2 (BioSignal Packard Ltd), which also encodes GFP. […] Mock and no-transfection controls were included with each experiment. Cells were harvested at 48 hours and stained with fluorochrome-conjugated anti-BTLA antibody at 10 μg/ml, alongside a Live/Dead marker, in PBS, 0.05% azide, 2% FCS (FACS buffer) for 1 h at 4° C. Cells were washed, pelleted and resuspended in 200 μl FACS buffer before being analysed on a BD FACSCanto flow cytometer. […] For each mutant the Geo-mean of anti-BTLA antibody binding to transfected cells was expressed as a percentage of binding to the wild-type receptor (FIG. 3b). A panel of anti-BTLA antibodies was assessed and any mutation that eliminated binding of all antibodies was excluded from the analysis, on the assumption that such mutations lead to drastic changes in protein folding or expression rather than indicating an antibody epitope.

E45R = molecular target: T4, E45R (Mus musculus); assay: as above
T4 construct: transmembrane and intracellular regions; also called BTLA E45R construct
T4 sequence (Q7Z6A9 31-151 E45R): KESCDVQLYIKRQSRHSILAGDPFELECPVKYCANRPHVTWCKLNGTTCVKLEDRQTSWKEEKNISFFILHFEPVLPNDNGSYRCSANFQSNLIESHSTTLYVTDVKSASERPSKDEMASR
Protocol: as §1

V80R = molecular target: T5, V80R (Mus musculus); assay: as above
T5 construct: transmembrane and intracellular regions; also called BTLA V80R construct
Protocol: as §1

P53R = molecular target: T6, P53R (Mus musculus); assay: as above
T6 construct: transmembrane and intracellular regions; also called BTLA P53R construct
T6 sequence (Q7Z6A9 31-151 P53R): as the sequence (Q7Z6A9 31-151 E45R) above, with R15E, P23R counted along it
Protocol: as §1

L123R = molecular target: T7, L123R (Mus musculus); assay: as above
T7 construct: transmembrane and intracellular regions; also called BTLA L123R construct
Protocol: as §1

S121R = molecular target: T8, S121R (Mus musculus); assay: as above
T8 construct: transmembrane and intracellular regions; also called BTLA S121R construct
T8 sequence (Q7Z6A9 31-151 S121R): as the sequence (Q7Z6A9 31-151 E45R) above, with R15E, S91R counted along it
Protocol: as §1

N108R = molecular target: T9, N108R (Mus musculus); assay: as above
T9 construct: transmembrane and intracellular regions; also called BTLA N108R construct
T9 sequence (Q7Z6A9 31-151 N108R): as the sequence (Q7Z6A9 31-151 E45R) above, with R15E, N78R counted along it
Protocol: as §1

Q120R = molecular target: T10, Q120R (Mus musculus); assay: as above
T10 construct: transmembrane and intracellular regions; also called BTLA Q120R construct
Protocol: as §1

E57R = molecular target: T11, E57R (Mus musculus); assay: as above
T11 construct: transmembrane and intracellular regions; also called BTLA E57R construct
T11 sequence (Q7Z6A9 31-151 E57R): as the sequence (Q7Z6A9 31-151 E45R) above, with R15E, E27R counted along it
Protocol: as §1

R42E = molecular target: T12, R42E (Mus musculus); assay: as above
T12 construct: transmembrane and intracellular regions; also called BTLA R42E construct
Protocol: as §1

T78R = molecular target: T13, T78R (Mus musculus); assay: as above
T13 construct: transmembrane and intracellular regions; also called BTLA T78R construct
T13 sequence (Q7Z6A9 31-151 T78R): as the sequence (Q7Z6A9 31-151 E45R) above, with R15E, T48R counted along it
Protocol: as §1

Q43R = molecular target: T14, Q43R (Mus musculus); assay: as above
T14 construct: transmembrane and intracellular regions; also called BTLA Q43R construct
T14 sequence (Q7Z6A9 31-151 Q43R): as the sequence (Q7Z6A9 31-151 E45R) above, with Q13R, R15E counted along it
Protocol: as §1

S47R = molecular target: T15, S47R (Mus musculus); assay: as above
T15 construct: transmembrane and intracellular regions; also called BTLA S47R construct
T15 sequence (Q7Z6A9 31-151 S47R): as the sequence (Q7Z6A9 31-151 E45R) above, with R15E, S17R counted along it
Protocol: as §1

H68E = molecular target: T16, H68E (Mus musculus); assay: as above
T16 construct: transmembrane and intracellular regions; also called BTLA H68E construct
Protocol: as §1

E103R = molecular target: T17, E103R (Mus musculus); assay: as above
T17 construct: transmembrane and intracellular regions; also called BTLA E103R construct
T17 sequence (Q7Z6A9 31-151 E103R): as the sequence (Q7Z6A9 31-151 E45R) above, with R15E, E73R counted along it
Protocol: as §1

Y132R = molecular target: T18, Y132R (Mus musculus); assay: as above
T18 construct: transmembrane and intracellular regions; also called BTLA Y132R construct
T18 sequence (Q7Z6A9 31-151 Y132R): as the sequence (Q7Z6A9 31-151 E45R) above, with R15E, Y102R counted along it
Protocol: as §1

K137E = molecular target: T19, K137E (Mus musculus); assay: as above
T19 construct: transmembrane and intracellular regions; also called BTLA K137E construct
T19 sequence (Q7Z6A9 31-151 K137E): as the sequence (Q7Z6A9 31-151 E45R) above, with R15E, K107E counted along it
Protocol: as §1

N65R = molecular target: T20, N65R (Mus musculus); assay: as above
T20 construct: transmembrane and intracellular regions; also called BTLA N65R construct
Protocol: as §1

[3] = molecular target: T2, chimeric BTLA of humanised-BTLA mice …; assay: cell-based or functional assay; remark: listed apart in the source
[4] = molecular target: T1, full length cynomolgus BTLA expressed …; assay: cell-based or functional assay

| EC50 [1] [nM] | AntiCD3/CD28 (CD4 T cell proliferation) repeat 1 [2] [% inhibition] | AntiCD3/CD28 (CD4 T cell proliferation) repeat 2 [2] [% inhibition] | AntiCD3/CD28 (CD69+ CD4 T cells) repeat 1 [2] [% inhibition] | AntiCD3/CD28 (CD69+ CD4 T cells) repeat 2 [2] [% inhibition] | MLR (CD4 T cell proliferation) repeat 1 [2] [% inhibition] | MLR (CD4 T cell proliferation) repeat 2 [2] [% inhibition] | binding as % of binding to wild-type BTLA (K81L) [%] | binding as % of binding to wild-type BTLA (E45R) [%] | binding as % of binding to wild-type BTLA (V80R) [%] | binding as % of binding to wild-type BTLA (P53R) [%] | binding as % of binding to wild-type BTLA (L123R) [%] | binding as % of binding to wild-type BTLA (S121R) [%] | binding as % of binding to wild-type BTLA (N108R) [%] | binding as % of binding to wild-type BTLA (Q120R) [%] | binding as % of binding to wild-type BTLA (E57R) [%] | binding as % of binding to wild-type BTLA (R42E) [%] | binding as % of binding to wild-type BTLA (T78R) [%] | binding as % of binding to wild-type BTLA (Q43R) [%] | binding as % of binding to wild-type BTLA (S47R) [%] | Binder | also measured |
| --- | --- | --- | --- | --- | --- | --- | --- | --- | --- | --- | --- | --- | --- | --- | --- | --- | --- | --- | --- | --- | --- |
| 0.16 | 23 | 35 | 58 | 67 | 30 | 36 | 90.3 | 96.3 | 71.6 | 55.6 | 97.4 | 67.9 | 107 | 76.3 | 76.3 | 111 | 95.3 | 87.9 | 99.7 | 2.8.6 (antibody, V domains shown, mouse IgG1k hybridoma antibody; also called clone 2.8.6) VH: QVQLKESGPGLVAPSQSLSITCTVSGFSLTTYGVHWVRQSPGKGLEWLGVMWPGGRTSYNPAPMSRLSISKDNSKSQVFLKMNSLQTDDTAMYYCVRGDYEYDYYAMDYWGQGTSVTVSS VL: QIVLSQSPAILSASPGEKVTMTCRASSSVSYMHWYQQKPGSSPKPWIYATSNLASGVPARFSGSGSGTSYSLTISRMEAEDAATYYCHQWSSNPYTFGGGTKLEIK | binding as % of binding to wild-type BTLA (H68E): 126%; binding as % of binding to wild-type BTLA (E103R): 79%; binding as % of binding to wild-type BTLA (Y132R): 68.2%; binding as % of binding to wild-type BTLA (K137E): 80.1%; binding as % of binding to wild-type BTLA (N65R): 89%; inhibition of CD4 T cell proliferation in MLR, IC50 [3]: 0.029 nM; inhibition of NFkB-GFP reporter, IC50 [4]: 0.22 nM |
| 0.0057 | 21 | 28 | 50 | 47 | 23 | 18 | 116 | 108 | 39.9 | 117 | 116 | 42.5 | 171 | 89.9 | 108 | 72.3 | 109 | 55.2 | 108 | 11.5.1 (antibody, V domains shown, mouse IgG1k hybridoma antibody) VH: EVQLQESGPSLVKPSQTLSLTCSVTGDSITSAYWNWIRKFPGNKLEYMGYISYSGSTYFNPSLKSRISITRNTSKNQYYLQLNSVTTEDTATYYCARSHYYGYYFDYWGHGTTLTVSS VL: DIVLTQSPASLAVSLGQRATISCRASETIDSYGDSLMHWYQQKAGQPPKLLIYRASNLESGIPARFSGSGSRTDFTLTINPVEADDVATYYCQQTDEDPYTFGGGTKLEIK | binding as % of binding to wild-type BTLA (H68E): 81.3%; binding as % of binding to wild-type BTLA (E103R): 213%; binding as % of binding to wild-type BTLA (Y132R): 68.1%; binding as % of binding to wild-type BTLA (K137E): 55.6%; binding as % of binding to wild-type BTLA (N65R): 87.9%; inhibition of CD4 T cell proliferation in MLR, IC50 [3]: 0.016 nM; inhibition of NFkB-GFP reporter, IC50 [4]: 0.14 nM |
